Assay results as given in patent US20230364228A1.

How the values were obtained:
[1] = target: highest binding amyloid (in vitro); assay: in vitro binding to amyloid, format not stated
[2] = target: highest binding amyloid (in vitro); assay: calculated from in vitro binding to amyloid, format not stated

- EC50 [1]: 157 µg/mL
- Michaelis-Menton (MM) EC 90 (calculated) [2]: 36.5 µg/mL
B1: antibody having a heavy chain variable domain (VH) of SEQ ID NO:1 and a light chain variable domain (VL) of SEQ ID NO:2 (CAEL101) (antibody, IgG1, V domains shown)
VH: QVQLKESGPGLVAPSQSLSITCTVSGFSLSSYGVSWVRQPPGKGLEWLGVIWGDGSTNYHPNLMSRLSISKDISKSQVLFKLNSLQTDDTATYYCVTLDYWGQGTSVTVSS
VL: DVVMTQTPLSLPVSLGDQASISCRSSQSLVHRNGNTYLHWYLQKPGQSPKLLIYKVSNRFSGVPDRFSGSGSGTDFTLKISRVEAEDLGLYFCFQTTYVPNTFGGGTKLEIK
